Experimental data from article PMC3162038.

Substrate: N[C@H]1C[C@H](COP(=O)(O)O)[C@@H](O)[C@H](O)[C@H]1O
Test: PK/LDH coupled colorimetric assay at A340, Hanes-Woolf plot
Assay type: biochemical, Streptomyces hygroscopicus
Settings: 300 μM GDP-valienol, 50 mM Tris-HCl pH 7.5, 5 mM MgCl2, apparent

B1: VldE (Streptomyces hygroscopicus subsp. limoneus) (protein)
chain: MTGSEIFLASKRAAITYDTDPATGEPRAWLAPGGTGNVVAEQAGVLNISWIASADSEDDRRASALNPDGVTMELHSGREILVRLIRHDPAVFRNVQNFMTANLMWAANNYGWDRWTQPSFGSDAREGWADFGRFTRDFADAILKSSAQSADPVYLVHDYQLVGVPALLREQRPDAPILLFVHIPWPSADYWRILPKEIRTGILHGMLPATTIGFFADRWCRNFLESVADLLPDARIDREAMTVEWRGHRTRLRTMPLGYSPLTLDGRNPQLPEGIEEWADGHRLVVHSGRTDPIKNAERAVRAFVLAARGGGLEKTRMLVRMNPNRLYVPANADYVHRVETAVAEANAELGSDTVRIDNDNDVNHTIACFRRADLLIFNSTVDGQNLSTFEAPLVNERDADVILSETCGAAEVLGEYCRSVNPFDLVEQAEAISAALAAGPRQRAEAAARRRDAARPWTLEAWVQAQLDGLAADHAARTATAERFDTAPAVSTRADL
Question: How did the Km turn out when B1 was run?
Answer: 308.0 ± 34.5 µM
